The values below are quoted from earlier work in article PMC4384115, “Molecular Recognition of PTS-1 Cargo Proteins by Pex5p: Implications for Protein Mistargeting in Primary Hyperoxaluria” (Biomolecules, 2015).

Series [1] deals with 3-Hydroxy-3-methylglutaryl-CoA lyase PTS1 peptide (Homo sapiens).
Series [2] has as its target Carnitine acyl-transferase 1 PTS1 peptide (Homo sapiens).
Series [3] concerns the target L-Bifunctional enzyme PTS1 peptide (Homo sapiens).

A word on the Kd: it is the concentration at which binding is half-saturated. Consider Pex5p pbd (from UniProt P50542), for which the equilibrium dissociation constant (Kd) is 2000 nM in series [1], 59 nM in series [2] and 1100 nM in series [3].
